Assay results from patent US20020115066A1, “Viral therapeutics” (priority 1998, published 2002).

Tests used:
ADRP [1] = settings: cited from earlier work
lipid droplets = experiment: Intracellular localization of core proteins and lipid droplets (indirect immunofluorescence, oil red O, confocal microscopy); assay type: cell-based, hamster; settings: BHK C13 cells, 20 hours after electroporation, antibody JM122 and oil red O
Procedure: BHK C13 cells were harvested 20 hours after electroporation and fixed with 4% paraformaldehyde, 0.1% Triton X-100. Indirect immunofluorescence was performed with antibody JM122 and an anti-mouse secondary antibody conjugated with FITC. Lipid droplets were stained with oil red O. Panels A, D, G, J, M, P, S and V show the distributions of core protein. Panels B, E, H, K, N, Q, T and W show the locations of lipid droplets. Panels C, F, I, L, O, R, U and X are merged images of core protein and lipid droplets. Cells were electroporated with RNA from the following constructs: panels A, B and C, pSFV.1-195; panels D, E and F, pSFV.1-173; panels G, H and I, pSFV.1-169; panels J, K and L, pSFV.1-153; panels M, N and O, pSFV.Δ155-161; panels P, Q and R, pSFV.Δ161-166; panels S, T and U, pSFVA125-144; panels V, W and X, pSFV.1-124, 145-152.
(§1) 0.8 ml of competent cells were mixed with in vitro transcribed RNA in an electroporation cuvette (0.4 cm gap) and pulsed twice at either 1.2 kV, 25 μF (for BHK C13 cells) or 0.36 kV, 960 μF (for MCA RH7777 cells). Between pulses, the cell/RNA suspension was gently mixed. Following electroporation, cells were diluted in growth medium and seeded onto either tissue culture dishes or coverslips in 24-well tissue culture plates and then incubated at 37° C.
(§2) Cells on 13 mm coverslips were fixed in either methanol at −20° C. or 4% paraformaldehyde, 0.1% Triton X-100 (prepared in PBS) at 4° C. for 30 mins. Following washing with PBS and blocking with PBS/CS (PBS containing 1% newborn calf serum), cells were incubated with primary antibody (diluted in PBS/CS at 1/200 for JM122 antibody, 1/1000 for 308 antisera and 1/100 for adipophilin antibody) for 2 hours at room temperature. Cells were washed extensively with PBS/CS and then incubated with conjugated secondary antibody (either anti-mouse or anti-rabbit IgG raised in goat) for 2 hours at room temperature. Cells were washed extensively in solutions of PBS/CS followed by PBS and finally H2O before mounting on slides using Citifluor. Samples were analyzed using a Leiss LSM confocal microscope.
Following incubation with both antibodies and washing, lipid droplets were stained in paraformaldehyde-fixed cells by briefly rinsing coverslips in 60% propan-2-ol followed by incubation with 0.5 ml 60% propan-2-ol containing oil red O for 1.5-2 mins at room temperature. Coverslips were briefly rinsed with 60% propan-2-ol, washed with PBS and H2O and mounted as described above. The oil red O staining solution was prepared from a saturated stock of approximately 1% oil red O dissolved in propan-2-ol. Before staining, the stock was diluted with H2O and then filtered.
This conclusion was arrived at by combining the techniques of immune electron microscopy with the ability to stain lipid with osmium tetroxide. However, this method suffers from the disadvantages that it is time-consuming and osmium tetroxide can stain other biological molecules (e.g. proteins) in addition to lipid. Therefore, we developed a method for detecting proteins firstly by indirect immunofluorescence followed by staining of lipid droplets with the oil-soluble colorant oil red O. Combined with the method of confocal microscopy, it is possible to visualize the intracellular localizations of core protein and lipid droplets separately and together. Here, BHK C13 cells have been electroporated with pSFV.1-195 RNA and, following incubation at 37° C. for 20 hours, the cells have been examined by both indirect immunofluorescence and staining with oil red O. In panel A, the core protein produced by pSFV.1-195 is seen to locate to vesicular structures in the cytoplasm.

ADRP [2] = experiment: Effect of expression of core proteins on the ability to detect ADRP in BHK C13 cells by confocal microscopy; assay type: cell-based, hamster; settings: 20 hours after electroporation, anti-adipophilin antibody
Procedure: Cells were harvested 20 hours after electroporation and fixed with methanol. ADRP was detected with anti-adipophilin antibody and core protein with 308 antisera. Secondary antibodies were an anti-mouse IgG conjugated with FITC (for anti-adipophilin) and anti-rabbit IgG conjugated with Cy5 (for 308 antisera). Panels A, D, G, J, M and P are images of ADRP localization. Panels B, E, H, K, N, and Q are images of core distribution. Panels C, F, I, L, O and R show the merged images of core and ADRP distributions. Cells were electroporated with RNA from the following constructs: panels A, B and C, pSFV.1-195; panels D, E and F, pSFV.1-173; panels G, H and I, pSFV.1-169; panels J, K and L, pSFV.1-153; panels M, N and O, pSFV.Δ155-161; panels P, Q and R, pSFV.Δ161-166.
as §1, §2

ADRP [3] = experiment: Effect of expression of core protein on the abundance of ADRP (Western blot); assay type: cell-based, hamster; settings: BHK C13 cells, extracts at various times following electroporation
Procedure: BHK C13 cells were electroporated with RNA from pSFV.1-195 and pSFV.1-153 and extracts were prepared at the times indicated following electroporation. Aliquots of cell extracts were electrophoresed on 10% polyacrylamide gels and then the proteins were transferred to nitrocellulose membrane for Western blot analysis. The upper panels show membranes probed with JM122 antibody while, in the lower panels, membranes were probed with anti-adipophilin antibody. Bands corresponding to core proteins, expressed from pSFV.1-195 and pSFV.1-153, and ADRP are arrowed.
To prepare extracts, electroporated cells were harvested by removing the growth medium and washing the cell monolayers with PBS. Cells were scraped into PBS and pelleted by centrifugation at 100 g for 5 mins at 4° C. The cell pellet was solubilized in sample buffer consisting of 160 mM Tris (pH 6.7), 2% SDS, 700 mM β-mercaptoethanol, 10% glycerol, 0.004% bromophenol blue.
For Western blot analysis, proteins were separated on polyacrylamide gels and transferred to nitrocellulose membrane using standard techniques. The nitrocellulose membrane was blocked in 3% gelatin, 20 mM Tris (pH 7.5), 500 mM NaCl for at least 6 hours at 37° C. prior to incubation with the primary antibody. […] Bound antibody was detected by enhanced chemiluminescence.

| Molecule | ADRP expression (ADRP [1]) | intracellular localization of core protein relative to lipid droplets (lipid droplets) | ADRP detected by immunofluorescence in core-expressing cells (ADRP [2]) | abundance of ADRP by Western blot (ADRP [3]) |
| --- | --- | --- | --- | --- |
| COc1ccc2c(c1)c(CC(=O)O)c(C)n2C(=O)c1ccc(Cl)cc1 [indomethacin] | stimulate ADRP expression | – | – | – |
| CC(C)Cc1ccc(C(C)C(=O)O)cc1 (stereo not drawn) [ibuprofen] | stimulate ADRP expression | – | – | – |
| pSFV.1-169: SFV construct encoding amino acid residues 1-169 of HCV strain Glasgow core (protein) GACECPGRSRRPCTMSTNPKPQRKTKRNTNRRPQDVKFPGGGQIVGGVYLLPRRGPRLGVRATRKTSERSQPRGRRQPIPKARRPKGRNWAQPGYPWPLYGNEGCGWAGWLLSPSGSRPSWGPNDPRRRSRNLGKVIDTLTCGFVDLMGYIPLVGAPLRGAARALAHGV | – | continue to locate to lipid droplets | barely detectable | – |
| pSFV.Δ161-166: construct lacking the sequences encoding residues 161 to 166 of the core protein of HCV strain Glasgow (protein) GACECPGRSRRPCTMSTNPKPQRKTKRNTNRRPQDVKFPGGGQIVGGVYLLPRRGPRLGVRATRKTSERSQPRGRRQPIPKARRPKGRNWAQPGYPWPLYGNEGCGWAGWLLSPSGSRPSWGPNDPRRRSRNLGKVIDTLTCGFVDLMGYIPLVGAPLRGHGVRVLEDGVNYATGNLPGCSFSIFLLAL | – | diffuse cytoplasmic pattern | readily found | – |
| pSFV.1-173: SFV construct encoding amino acid residues 1-173 of HCV strain Glasgow core (protein) GACECPGRSRRPCTMSTNPKPQRKTKRNTNRRPQDVKFPGGGQIVGGVYLLPRRGPRLGVRATRKTSERSQPRGRRQPIPKARRPKGRNWAQPGYPWPLYGNEGCGWAGWLLSPSGSRPSWGPNDPRRRSRNLGKVIDTLTCGFVDLMGYIPLVGAPLRGAARALAHGVRVLE | – | continue to locate to lipid droplets | barely detectable | – |
| pSFV.Δ155-161: construct lacking the sequences encoding residues 155 to 161 of the core protein of HCV strain Glasgow (protein) GACECPGRSRRPCTMSTNPKPQRKTKRNTNRRPQDVKFPGGGQIVGGVYLLPRRGPRLGVRATRKTSERSQPRGRRQPIPKARRPKGRNWAQPGYPWPLYGNEGCGWAGWLLSPSGSRPSWGPNDPRRRSRNLGKVIDTLTCGFVDLMGYIPLVARALAHGVRVLEDGVNYATGNLPGCSFSIFLLAL | – | did not affect lipid droplet association | barely detectable | – |
| pSFV.Δ125-144: construct expressing a core variant in which residues 125 to 144 had been deleted (protein) GACECPGRSRRPCTMSTNPKPQRKTKRNTNRRPQDVKFPGGGQIVGGVYLLPRRGPRLGVRATRKTSERSQPRGRRQPIPKARRPKGRNWAQPGYPWPLYGNEGCGWAGWLLSPSGSRPSWGPNVDLMGYIPLVGAPLRGAARALAHGVRVLEDGVNYATGNLPGCSFSIFLLAL | – | diffuse fluorescence | – | – |
| pSFV.1-153: SFV construct encoding amino acid residues 1-153 of HCV strain Glasgow core (protein) GACECPGRSRRPCTMSTNPKPQRKTKRNTNRRPQDVKFPGGGQIVGGVYLLPRRGPRLGVRATRKTSERSQPRGRRQPIPKARRPKGRNWAQPGYPWPLYGNEGCGWAGWLLSPSGSRPSWGPNDPRRRSRNLGKVIDTLTCGFVDLMGYIPL | – | do not associate with lipid droplets | readily found | no change in the abundance of ADRP |
| pSFV.1-124,145-152: core variant truncated at residue 152 and lacking amino acids 125 to 144 (protein) GACECPGRSRRPCTMSTNPKPQRKTKRNTNRRPQDVKFPGGGQIVGGVYLLPRRGPRLGVRATRKTSERSQPRGRRQPIPKARRPKGRNWAQPGYPWPLYGNEGCGWAGWLLSPSGSRPSWGPNVDLMGYIP | – | diffuse fluorescence | – | – |
| pSFV.1-195: SFV construct encoding the N-terminal 195 amino acids of HCV strain Glasgow (core protein) (protein) GACECPGRSRRPCTMSTNPKPQRKTKRNTNRRPQDVKFPGGGQIVGGVYLLPRRGPRLGVRATRKTSERSQPRGRRQPIPKARRPKGRNWAQPGYPWPLYGNEGCGWAGWLLSPSGSRPSWGPNDPRRRSRNLGKVIDTLTCGFVDLMGYIPLVGAPLRGAARALAHGVRVLEDGVNYATGNLPGCSFSIFLLAL | – | sited around the lipid droplets | either lacked or contained barely detectable amounts of ADRP | rapid reduction in ADRP levels to barely detectable quantities |
